Reference: patent US20220196651A1 (ALX ONCOLOGY, published 2022)

Molecular target: Drug A
Test: cell-based or functional assay

B1: anti-SIRP multimer G (antibody, mouse IgG2a)
heavy: DVQLVESGGGVVRPGESLRLSCAASGFTFSSNAMSWVRQAPGKGLEWLAGISAGGSDTYYPASVKGRFTISRDNSKNTLYLQMNTLTAEDTAVYYCARETWNHLFDYWGLGTLVTVSSAKTTAPSVYPLAPVCGDTTGSSVTLGCLVKGYFPEPVTLTWNSGSLSSGVHTFPAVLQSDLYTLSSSVTVTSSTWPSQSITCNVAHPASSTKVDKKIEPRGPTIKPCPPCKCPAPNLLGGPSVFIFPPKIKDVLMISLSPIVTCVVVDVSEDDPDVQISWFVNNVEVHTAQTQTHREDYNSTLRVVSALPIQHQDWMSGKEFKCKVNNKDLPAPIERTISKPKGSVRAPQVYVLPPPEEEMTKKQVTLTCMVTDFMPEDIYVEWTNNGKTELNYKNTEPVLDSDGSYFMYSKLRVEKKNWVERNSYSCSVVHEGLHNHHTTKSFSRTPG
light: ALTQPASVSANPGETVKIACSGGDYYSYYYGWYQQKAPGSALVTVIYSDDKRPSDIPSRFSGSASGSTATLTITGVRAEDEAVYYCGGYDYSTYANAFGAGTTLTVLGQPKSSPSVTLFPPSSEELETNKATLVCTITDFYPGVVTVDWKVDGTPVTQGMETTQPSKQSNNKYMASSYLTLTARAWERHSSYSCQVTHEGHTVEKSLSRADCS
For B1, the “molar excess of Multimer G that mitigated interference, gel card, Drug A 1000 µg/mL” value was 4 fold molar excess relative to Drug A, the “molar excess of Multimer G that mitigated interference, gel card, Drug A 2000 µg/mL” value was 6 fold molar excess relative to Drug A and the “molar excess of Multimer G that mitigated interference, gel card, Drug A between 0.1 and 100 (printed ng/mL)” value was 3 fold molar excess relative to Drug A.

B2: anti-SIRP multimer E (antibody, mouse IgG1, N297A)
heavy: DVQLVESGGGVVRPGESLRLSCAASGFTFSSNAMSWVRQAPGKGLEWLAGISAGGSDTYYPASVKGRFTISRDNSKNTLYLQMNTLTAEDTAVYYCARETWNHLFDYWGLGTLVTVSSAKTTPPSVYPLAPGSAAQTNSMVTLGCLVKGYFPEPVTVTWNSGSLSSGVHTFPAVLQSDLYTLSSSVTVPSSTWPSETVTCNVAHPASSTKVDKKIVPRDCGCKPCICTVPEVSSVFIFPPKPKDVLTITLTPKVTCVVVDISKDDPEVQFSWFVDDVEVHTAQTQPREEQFASTFRSVSELPIMHQDWLNGKEFKCRVNSAAFPAPIEKTISKTKGRPKAPQVYTIPPPKEQMAKDKVSLTCMITDFFPEDITVEWQWNGQPAENYKNTQPIMDTDGSYFIYSKLNVQKSNWEAGNTFTCSVLHEGLHNHHTEKSLSHSPG
light: ALTQPASVSANPGETVKIACSGGDYYSYYYGWYQQKAPGSALVTVIYSDDKRPSDIPSRFSGSASGSTATLTITGVRAEDEAVYYCGGYDYSTYANAFGAGTTLTVLGQPKSSPSVTLFPPSSEELETNKATLVCTITDFYPGVVTVDWKVDGTPVTQGMETTQPSKQSNNKYMASSYLTLTARAWERHSSYSCQVTHEGHTVEKSLSRADCS
With B2 the “molar ratio to Drug A at which interference was mitigated, SPRCA” value was ≥ 1.25 x molar ratio to Drug A.

B3: anti-SIRP multimer F (antibody, mouse IgG1, N297A, V domains shown)
VH: DVQLVESGGGVVRPGESLRLSCAASGFTFSSYAMSWVRQAPGKGLEWLAGISAGGSDTYYIDSVKGRFTISRDNPKNSLYLQMSSLTAEDTAVYYCARETWNHLFDYWGLGTLVTVSS
VL: ALTQPASVSANPGETVKITCSGGDYYSTYYAWYQQKSPGSAPVTVIHSDDKRPSDIPSRFSGSASGSAATLIITGVRVEDEAVYYCGGYDGRTYINTFGAGTTLTVLG
B3 was tested, and the “molar ratio to Drug A at which interference was mitigated, SPRCA” value was ≥ 1.25 x molar ratio to Drug A.

B4: anti-SIRP multimer D (antibody, V domains shown)
VH: DVQLVESGGGVVRPGESLRLSCAASGFTFSSNAMSWVRQAPGKGLEWLAGISAGGSDTYYPASVKGRFTISRDNSKNTLYLQMNTLTAEDTAVYYCARETWNHLFDYWGLGTLVTVSS
VL: ALTQPASVSANPGETVKIACSGGDYYSYYYGWYQQKAPGSALVTVIYSDDKRPSDIPSRFSGSASGSTATLTITGVRAEDEAVYYCGGYDYSTYANAFGAGTTLTVL
With B4 the “molar ratio to Drug A (130 nM) at which no agglutination was observed, IAT tube assay” value was 2.5 x molar ratio to Drug A and the “molar ratio to Drug A (130 nM) at which no interference was observed, SPRCA” value was ≥ 0.63 x molar ratio to Drug A.
